Measurements as given in paper PMC8692152, “Cellular Id1 inhibits hepatitis B virus transcription by interacting with the novel covalently closed circular DNA-binding protein E2F4”.

Experiments:
[1] = biological target: T1, E2F4 1-88 (UniProt Q16254 1-88); experiment: ITC; error exceeds value; SPR: Biacore X100, SA chip, DNA in PBS (137 mM NaCl, 2.7 mM KCl, 10 mM Na2HPO4, 2 mM KH2PO4, pH 7.4), protein 10-320 nM (Fig. S3D legend prints mM); ITC: 250 mM NaCl, 50 mM Tris-HCl pH 7.5; EMSA: Beyotime kit, 6% native gel; temperatures not stated; conditions: protein: recombinant; tags: GST removed with 3C protease (ITC methods); pET28 His construct also described; chain copies: 2; blunt
[2] = biological target: T2, E2F4 1-180 (UniProt Q16254 1-180); experiment: SPR; SPR: Biacore X100, SA chip, DNA in PBS (137 mM NaCl, 2.7 mM KCl, 10 mM Na2HPO4, 2 mM KH2PO4, pH 7.4), protein 10-320 nM (Fig. S3D legend prints mM); ITC: 250 mM NaCl, 50 mM Tris-HCl pH 7.5; EMSA: Beyotime kit, 6% native gel; temperatures not stated; conditions: protein: recombinant; tags: His (pET28a); chain copies: 2; label: 5'-biotin on sense strand; blunt
[3] = biological target: T1, E2F4 1-88; experiment: ITC; SPR: Biacore X100, SA chip, DNA in PBS (137 mM NaCl, 2.7 mM KCl, 10 mM Na2HPO4, 2 mM KH2PO4, pH 7.4), protein 10-320 nM (Fig. S3D legend prints mM); ITC: 250 mM NaCl, 50 mM Tris-HCl pH 7.5; EMSA: Beyotime kit, 6% native gel; temperatures not stated; conditions: protein: recombinant; tags: GST removed with 3C protease (ITC methods); pET28 His construct also described; chain copies: 2; blunt
[4] = biological target: T2, E2F4 1-180; experiment: SPR; random control DNA; SPR: Biacore X100, SA chip, DNA in PBS (137 mM NaCl, 2.7 mM KCl, 10 mM Na2HPO4, 2 mM KH2PO4, pH 7.4), protein 10-320 nM (Fig. S3D legend prints mM); ITC: 250 mM NaCl, 50 mM Tris-HCl pH 7.5; EMSA: Beyotime kit, 6% native gel; temperatures not stated; conditions: protein: recombinant; tags: His (pET28a); chain copies: 2; label: 5'-biotin on sense strand; blunt

T1 sequence (Q16254 1-88): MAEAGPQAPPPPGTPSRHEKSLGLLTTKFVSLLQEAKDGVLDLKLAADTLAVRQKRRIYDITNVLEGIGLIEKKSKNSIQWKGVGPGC
T2 sequence (Q16254 1-180): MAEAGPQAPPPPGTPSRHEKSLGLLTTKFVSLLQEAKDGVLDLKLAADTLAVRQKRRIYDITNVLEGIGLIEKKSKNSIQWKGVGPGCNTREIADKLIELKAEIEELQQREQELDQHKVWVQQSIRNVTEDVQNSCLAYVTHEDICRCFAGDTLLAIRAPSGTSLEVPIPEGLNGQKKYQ

B1: Cp2-mut (ITC) (dsDNA)
DNA 1: TTAGATTAAATTTCTTTGT
DNA 2: ACAAAGAAATTTAATCTAA
- Kd [1]: 19.6 ± 31.2 µM

B2: Biotin-Cp2 (SPR) (dsDNA)
DNA 1: TTAGATTAAAGGTCTTTGT
DNA 2: ACAAAGACCTTTAATCTAA
- Kd [2]: 0.0878 µM

B3: Cp2 (ITC) (dsDNA)
DNA 1: TTAGATTAAAGGTCTTTGT
DNA 2: ACAAAGACCTTTAATCTAA
- Kd [3]: 10.3 ± 4.37 µM

B4: Control-DNA-biotin (SPR) (dsDNA)
DNA 1: ATGATGTCACCACAAGAAGT
DNA 2: ACTTCTTGTGGTGACATCAT
- Kd [4]: 0.136 µM
